B1: CS1 (Fc fusion)
VH: QVQLQQSGAEVKKPGSSVKVSCKASGGTFSSYAISWVRQAPGQGLEWMGGIIPIFGTANYAQKFQGRVTITADESTSTAYMELSSLRSEDTAVYYCARDRGVGRGYSYGFLPLDYWGQGTLVTVSS
VL: DIQMTQSPLSLPATPGEPASISCRSSQSLLHSDGYSYLHWYVQKPGQSPQLLISADSNRASGVPGRFSGSGSGTDFTLKISRVEAEDVGVYYCMQALQTPWTFGQGTKLDIK
notes: also called 抗体CS1
B2: CS2 (Fc fusion)
VH: EVQLVQSGAEVKKPGASVKVSCKASGGTFSSYAISWVRQAPGQGLEWMGGIIPIFGTANYAQKFQGRVTITADESTSTAYMELSSLRSEDTAVYYCARGSGDYGMDVWGQGTTVTVSS
VL: QSALTQPASVSGSPGQSITISCTGTSSDVGGYNYVSWYQQHPGKAPKLVISEVRNRPSGVSNRFSGSKSGNTASLTISGLQAEDEADYYCSSYTTRDTRVFGGGTQLTVL
notes: also called 抗体CS2
B3: CS7 (Fc fusion)
VH: EVQLVQSGAEVKKPGSSVKVSCKASGGTFSSYAISWVRQAPGQGLEWMGGIIPILGIANYAQKFQGRVTITADKSTSTAYMELSSLRSEDTAVYYCARGSGDYSMDVWGQGTLVTVSS
VL: QSALAQPASVSGSPGQSITISCTGTSSDVGGYNYVAWYQQHPGKAPKLMIYEVSNRPSGVSNRFSGSKSGNTASLTISGLQAEDEADYYCSSYTTRDTRVFGGGTKLTVL
notes: also called 抗体CS7
B4: CS3 (Fc fusion)
VH: EVQLVQSGAEVKKPGSSVKVSCKASGGTFSSYAISWVRQAPGQGLEWMGGIIPIFGTANYAQKFQGRVTITADKSTSTAYMELSSLRSEDTAVYYCARGSGDYGMDVWGQGTTVTVSS
VL: QSALTQPASVSGSPGQSITISCTGTSSDVGLYNYVSWYQQHPGKAPKLMVSEVSNRPSGVSNRFSGSKSGNTASLTISGLQAEDEADYYCSSYTTRDTRVFGGGTKVTVL
notes: also called 抗体CS3

target: T1, 新型冠状病毒(2019-nCoV)Spike蛋白 (全长三聚体S蛋白) (新型冠状病毒(2019-nCoV), UniProt P0DTC2 16-1213); assay: Octet Blitz (BLI), scFv-Fc, apparent affinity
T1 construct: also called 病毒S蛋白

| Binder | Kd [nM] |
| --- | --- |
| B1 | 1.2 |
| B2 | 2.1 |
| B3 | 12.3 |
| B4 | 23.2 |
